B1: Bcl-2-like protein 11 (Mus musculus), O54918-2 (parent)
chain: MAKQPSDVSSECDREGGQLQPAERPPQLRPGAPTSLQTEPQDRSPAPMSCDKSTQTPSPPCQAFNHYLSAMASIRQSQEEPEDLRPEIRIAQELRRIGDEFNETYTRRVFANDYREAEDHPQMVILQLLRFIFRLVWRRH

Variants of: B1
Conditions: with dlrb1_human DYNLRB1, Q9NP97
Sequence of dlrb1_human DYNLRB1, Q9NP97 (Q9NP97 whole entry): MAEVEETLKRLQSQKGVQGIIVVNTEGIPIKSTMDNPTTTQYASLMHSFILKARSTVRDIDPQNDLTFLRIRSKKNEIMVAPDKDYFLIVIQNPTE

Row | Variant | effect of a mutation on the interaction
1 | MAKQPSDVSSECDREGGQLQPAERPPQLRPGAPTSLQTEPQDRSPAPMSCDKPTQTPSPPCQAFNHYLSAMASIRQSQEEPEDLRPEIRIAQELRRIGDEFNETYTRRVFANDYREAEDHPQMVILQLLRFIFRLVWRRH | decreasing interaction
2 | MAKQPSDVSSECDREGGQLQPAERPPQLRPGAPTSLQTEPQDRSPAPMSCDKSAQTPSPPCQAFNHYLSAMASIRQSQEEPEDLRPEIRIAQELRRIGDEFNETYTRRVFANDYREAEDHPQMVILQLLRFIFRLVWRRH | decreasing interaction
3 | MAKQPSDVSSECDREGGQLQPAERPPQLRPGAPTSLQTEPQDRSPAPMSCDKSAQTPSPPCQAFSHYLSAMASIRQSQEEPEDLRPEIRIAQELRRIGDEFNETYTRRVFANDYREAEDHPQMVILQLLRFIFRLVWRRH | decreasing interaction
